Here are results for two molecules from patent publication US20180194839A1 (Novartis, published 2018).

Positions count from the first letter of the chain named. In names and notes the source's numbering stands.

For assay [1], the target named is T1, recombinant human IL-3 (R&D Systems Cat#203-IL/CF) (human, UniProt P08700 20-152).
T1 construct: also called huIL-3
T1 sequence (looked up): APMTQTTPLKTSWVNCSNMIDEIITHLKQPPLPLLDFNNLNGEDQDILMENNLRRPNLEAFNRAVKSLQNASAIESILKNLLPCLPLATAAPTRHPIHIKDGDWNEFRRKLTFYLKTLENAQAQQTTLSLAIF
The assay is described as follows: ELISA, coated cytokine, Ab 10 µg/ml.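 Further: antibodies incubated 3 h at room temperature on the coated wells, binding detected with alkaline phosphatase-conjugated anti-IgG secondary antibodies matching the species of each test antibody.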 A general note: ELISA stands for enzyme-linked immunosorbent assay.

Assay [2] has as its target T2, recombinant human IL-13 (Novartis) (human, UniProt P35225 35-146, limits assumed).
T2 construct: also called huIL-13
The assay is described as follows: ELISA, coated cytokine, Ab 10 µg/ml.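 Further: antibodies incubated 3 h at room temperature on the coated wells, binding detected with alkaline phosphatase-conjugated anti-IgG secondary antibodies matching the species of each test antibody.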

Assay [3] addresses T3, recombinant human IL-17A/F heterodimer (human, UniProt Q16552 24-155; Q96PD4 31-163, limits assumed).
T3 construct: heterodimer of an IL-17A subunit and an IL-17F subunit; also called huIL-17A/F; rhuIL-17A/F
T3 sequence (looked up) 1: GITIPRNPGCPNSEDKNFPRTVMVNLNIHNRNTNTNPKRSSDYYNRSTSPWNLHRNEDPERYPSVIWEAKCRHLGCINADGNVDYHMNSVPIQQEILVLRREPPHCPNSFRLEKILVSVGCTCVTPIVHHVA
T3 sequence (looked up) 2: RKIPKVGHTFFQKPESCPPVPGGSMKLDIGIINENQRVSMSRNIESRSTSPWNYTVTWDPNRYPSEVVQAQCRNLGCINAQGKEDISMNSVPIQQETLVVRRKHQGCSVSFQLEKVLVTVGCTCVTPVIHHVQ
The assay is described as follows: ELISA, coated cytokine, Ab 10 µg/ml.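 Further: antibodies incubated 3 h at room temperature on the coated wells, binding detected with alkaline phosphatase-conjugated anti-IgG secondary antibodies matching the species of each test antibody.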

Assay [4] deals with T4, recombinant human IL-4 (R&D Systems Cat#204-IL/CF) (human, UniProt P05112 25-153).
T4 construct: also called huIL-4
T4 sequence (looked up): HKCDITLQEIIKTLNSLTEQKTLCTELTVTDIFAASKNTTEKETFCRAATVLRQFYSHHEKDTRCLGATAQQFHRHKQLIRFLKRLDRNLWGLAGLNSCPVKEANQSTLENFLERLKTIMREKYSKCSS
The assay is described as follows: ELISA, coated cytokine, Ab 10 µg/ml.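 Further: antibodies incubated 3 h at room temperature on the coated wells, binding detected with alkaline phosphatase-conjugated anti-IgG secondary antibodies matching the species of each test antibody.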

For assay [5], the target named is T5, recombinant human TGFβ2 (Novartis) (human, UniProt P61812 303-414).
T5 construct: also called huTGFβ2
T5 sequence (looked up): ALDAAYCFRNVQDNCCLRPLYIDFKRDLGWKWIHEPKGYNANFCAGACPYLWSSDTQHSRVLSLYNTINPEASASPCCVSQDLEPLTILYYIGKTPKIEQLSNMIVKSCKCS
The assay is described as follows: ELISA, coated cytokine, Ab 10 µg/ml.

For assay [6], the target named is T6, recombinant human TNFα (Novartis) (human, UniProt P01375 77-233).
T6 construct: also called huTNFα
The assay is described as follows: ELISA, coated cytokine, Ab 10 µg/ml.

Assay [7] deals with T7, recombinant human IL-1β (Novartis) (human, UniProt P01584 117-269).
T7 construct: also called huIL1β
The assay is described as follows: ELISA, coated cytokine, Ab 10 µg/ml.

Assay [8] addresses T8, recombinant human IL-23 (R&D Systems Cat#1290-IL-010/CF) (human, UniProt Q9NPF7 20-189; P29460 23-328).
T8 construct: also called huIL-23
T8 sequence (looked up) 1: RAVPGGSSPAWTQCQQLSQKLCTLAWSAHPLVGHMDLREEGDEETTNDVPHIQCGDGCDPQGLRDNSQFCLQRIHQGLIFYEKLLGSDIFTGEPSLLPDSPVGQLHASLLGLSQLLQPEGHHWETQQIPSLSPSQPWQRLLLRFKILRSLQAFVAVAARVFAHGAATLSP
T8 sequence (looked up) 2: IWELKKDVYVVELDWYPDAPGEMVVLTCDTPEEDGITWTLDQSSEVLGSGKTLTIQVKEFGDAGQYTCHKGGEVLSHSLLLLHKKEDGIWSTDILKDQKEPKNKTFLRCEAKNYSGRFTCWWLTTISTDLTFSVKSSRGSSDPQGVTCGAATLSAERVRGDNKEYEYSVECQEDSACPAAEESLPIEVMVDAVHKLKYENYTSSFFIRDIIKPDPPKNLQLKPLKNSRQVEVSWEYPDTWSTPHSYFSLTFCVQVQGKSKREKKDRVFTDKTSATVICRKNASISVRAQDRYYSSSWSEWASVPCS
The assay is described as follows: ELISA, coated cytokine, Ab 10 µg/ml.

Assay [9] deals with T9, recombinant human IFNγ (Roche) (human, UniProt P01579 24-166, limits assumed).
T9 construct: also called huIFNγ
T9 sequence (looked up): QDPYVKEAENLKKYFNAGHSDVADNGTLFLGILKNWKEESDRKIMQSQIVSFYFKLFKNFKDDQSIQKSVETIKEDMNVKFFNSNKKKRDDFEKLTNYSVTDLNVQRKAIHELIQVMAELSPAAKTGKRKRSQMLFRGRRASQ
The assay is described as follows: ELISA, coated cytokine, Ab 10 µg/ml.

Assay [10] addresses T10, recombinant human EGF (Sigma Cat#E9644) (human, UniProt P01133 971-1023).
T10 construct: also called huEGF
The assay is described as follows: ELISA, coated cytokine, Ab 10 µg/ml.

For assay [11], the target named is T11, recombinant human IL-8 (R&D Systems Cat#208-IL-010/CF) (human, UniProt P10145 28-99).
T11 construct: also called huIL-8
T11 sequence (looked up): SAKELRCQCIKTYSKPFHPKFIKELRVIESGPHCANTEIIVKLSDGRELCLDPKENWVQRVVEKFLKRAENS
The assay is described as follows: ELISA, coated cytokine, Ab 10 µg/ml.

For assay [12], the target named is T12, recombinant mouse IL-17A (SEQ ID NO: 83) (mouse, UniProt Q62386 26-158).
T12 sequence: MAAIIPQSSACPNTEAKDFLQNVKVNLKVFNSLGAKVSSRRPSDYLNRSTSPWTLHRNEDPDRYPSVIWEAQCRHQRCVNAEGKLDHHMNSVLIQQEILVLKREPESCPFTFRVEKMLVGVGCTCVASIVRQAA
The assay is described as follows: cell-based or functional assay.

Assay [13] has as its target T13, recombinant mouse IL-17F (SEQ ID NO: 84) (mouse, UniProt Q7TNI7 29-161).
T13 sequence: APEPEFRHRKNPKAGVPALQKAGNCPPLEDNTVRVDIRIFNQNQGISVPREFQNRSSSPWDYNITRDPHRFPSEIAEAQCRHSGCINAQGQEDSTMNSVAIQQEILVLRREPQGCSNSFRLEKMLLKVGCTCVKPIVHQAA
The assay is described as follows: cell-based or functional assay.

T6 sequence (P01375 77-233 limits assumed): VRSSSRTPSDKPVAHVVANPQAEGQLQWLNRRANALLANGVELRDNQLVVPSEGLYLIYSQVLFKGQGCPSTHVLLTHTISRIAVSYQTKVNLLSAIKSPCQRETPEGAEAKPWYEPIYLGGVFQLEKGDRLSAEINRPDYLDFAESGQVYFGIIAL
T2 sequence (P35225 35-146 limits assumed): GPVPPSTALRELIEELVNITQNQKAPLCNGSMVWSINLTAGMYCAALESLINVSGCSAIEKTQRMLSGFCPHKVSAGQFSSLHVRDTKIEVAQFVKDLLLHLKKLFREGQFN
T10 sequence (P01133 971-1023 limits assumed): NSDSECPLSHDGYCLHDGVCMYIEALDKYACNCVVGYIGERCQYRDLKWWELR

B1: XAB4 (antibody, human IgG1, kappa, V domains shown)
VH: EVQLVESGGDLVQPGGSLRLSCAASGFTFSSYWMSWVRQAPGKGLEWVANIKQDGSEKYYVDSVKGRFTISRDNAKNSLYLQMNSLRAEDTAVYYCARDRGSLYYWGQGTLVTVSS
VL: AIQLTQSPSSLSASVGDRVTITCRPSQGINWELAWYQQKPGKAPKLLIYDASSLEQGVPSRFSGSGSGTDFTLTISSLQPEDFATYYCQQFNSYPLTFGGGTKVEIKR
notes: also called MB435 N56Q
In the case of B1, the O.D. in assay [1] came out at 0.167 O.D; in assay [2] it was 0.019 O.D; in [3], 3.1 O.D; in assay [4], 0.047 O.D; in assay [5] it was 0.018 O.D; in assay [6], 0.009 O.D. Further, the O.D. in [7] is 0.015 O.D; in assay [8], -0.022 O.D; in assay [9], 0.048 O.D; in [10], 0.126 O.D; in assay [11] it was 0.018 O.D. For the same molecule, in assay [12], the “IC50, mouse KC secretion by CMT-93 cells; stimulus mIL-17A (1 nM)” value worked out at 13.8 nM. For the same molecule, the “IC50, mouse KC secretion by CMT-93 cells; stimulus mIL-17F (30 nM)” value in assay [13] is > 10000 nM.

B2: XAB1 (antibody, human IgG1, kappa, V domains shown)
VH: B1 VH
VL: B1 VL with N30I, W31S, E32A, Q56N
notes: human IgG1/kappa monoclonal antibody; also called parental XAB1; XAB1 IgG
B2: the O.D. in assay [1] was -0.049 O.D; in assay [2] it was 0.125 O.D; in [3], 2.64 O.D; in [4], 0.057 O.D; in assay [5], 0.146 O.D; in assay [6] it was 0.289 O.D. Besides, the O.D. in assay [7] is -0.11 O.D; in assay [8], 0.085 O.D; in assay [9], 0.059 O.D; in assay [10] it was 0.062 O.D; in [11], 0.058 O.D. Also, the “IC50, mouse KC secretion by CMT-93 cells; stimulus mIL-17A (1 nM)” value in assay [12] is 539 nM. Moreover, the “IC50, mouse KC secretion by CMT-93 cells; stimulus mIL-17F (30 nM)” value in [13] was > 10000 nM.
